Laboratory results as given in paper PMC1931440.

These substances were tested against murine type IV collagen (murine) (UniProt P02463) (assay: adherence of recombinant bacteria to collagen-coated wells; intact E. coli EPI300 expressing Hag (~10^7 CFU in PBS with 0.15% gelatin) added to BioCoat murine type IV collagen wells with tissue culture medium; centrifuged 165 x g 5 min; 1 hr at 37°C, 7.5% CO2; washed five times; fixed, crystal violet; bacteria counted per microscopic field, normalized by CFU; negative control E. coli with pCC1.3).
UniProt P02463, sequence (P02463 173-1669, chain 1 of 2): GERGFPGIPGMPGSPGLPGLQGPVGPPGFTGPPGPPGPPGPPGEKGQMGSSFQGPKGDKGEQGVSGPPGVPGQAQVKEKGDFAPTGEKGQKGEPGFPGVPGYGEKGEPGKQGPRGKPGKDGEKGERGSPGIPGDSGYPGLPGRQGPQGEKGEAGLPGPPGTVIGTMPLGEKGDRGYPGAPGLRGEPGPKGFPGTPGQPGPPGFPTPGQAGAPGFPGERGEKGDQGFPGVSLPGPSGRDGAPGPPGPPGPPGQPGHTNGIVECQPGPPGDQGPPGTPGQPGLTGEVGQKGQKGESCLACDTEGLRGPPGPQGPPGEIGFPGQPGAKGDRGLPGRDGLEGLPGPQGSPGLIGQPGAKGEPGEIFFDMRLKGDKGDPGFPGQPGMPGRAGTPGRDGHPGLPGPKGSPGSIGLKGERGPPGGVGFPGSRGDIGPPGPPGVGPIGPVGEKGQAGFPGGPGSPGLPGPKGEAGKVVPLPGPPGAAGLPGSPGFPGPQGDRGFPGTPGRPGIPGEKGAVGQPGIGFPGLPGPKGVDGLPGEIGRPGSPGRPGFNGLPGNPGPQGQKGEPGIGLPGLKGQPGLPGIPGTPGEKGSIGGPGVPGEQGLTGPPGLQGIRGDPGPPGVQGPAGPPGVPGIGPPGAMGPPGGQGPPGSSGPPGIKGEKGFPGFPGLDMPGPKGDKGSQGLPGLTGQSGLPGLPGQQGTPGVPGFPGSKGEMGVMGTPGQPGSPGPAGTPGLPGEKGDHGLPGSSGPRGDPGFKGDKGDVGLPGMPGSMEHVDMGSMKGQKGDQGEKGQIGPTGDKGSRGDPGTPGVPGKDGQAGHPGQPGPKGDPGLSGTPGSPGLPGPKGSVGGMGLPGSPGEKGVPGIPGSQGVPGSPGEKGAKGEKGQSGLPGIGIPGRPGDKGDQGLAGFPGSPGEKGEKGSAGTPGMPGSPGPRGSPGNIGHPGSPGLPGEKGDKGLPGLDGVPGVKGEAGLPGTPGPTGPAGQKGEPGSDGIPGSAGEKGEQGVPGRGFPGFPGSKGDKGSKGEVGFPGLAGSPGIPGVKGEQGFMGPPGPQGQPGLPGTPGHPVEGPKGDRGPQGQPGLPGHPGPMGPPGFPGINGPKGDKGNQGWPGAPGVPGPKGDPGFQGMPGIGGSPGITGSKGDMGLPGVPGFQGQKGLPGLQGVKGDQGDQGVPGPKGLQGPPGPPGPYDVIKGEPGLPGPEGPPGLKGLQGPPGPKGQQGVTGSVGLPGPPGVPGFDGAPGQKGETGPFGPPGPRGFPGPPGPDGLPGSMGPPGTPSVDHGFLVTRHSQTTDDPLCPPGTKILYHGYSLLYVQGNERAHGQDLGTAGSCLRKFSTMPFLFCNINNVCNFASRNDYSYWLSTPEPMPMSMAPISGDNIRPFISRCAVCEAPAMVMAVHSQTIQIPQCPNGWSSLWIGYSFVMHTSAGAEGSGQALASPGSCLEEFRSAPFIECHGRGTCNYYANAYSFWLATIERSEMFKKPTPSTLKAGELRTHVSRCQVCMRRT
UniProt P02463, sequence (P08122 184-1707, chain 2 of 2, further chain): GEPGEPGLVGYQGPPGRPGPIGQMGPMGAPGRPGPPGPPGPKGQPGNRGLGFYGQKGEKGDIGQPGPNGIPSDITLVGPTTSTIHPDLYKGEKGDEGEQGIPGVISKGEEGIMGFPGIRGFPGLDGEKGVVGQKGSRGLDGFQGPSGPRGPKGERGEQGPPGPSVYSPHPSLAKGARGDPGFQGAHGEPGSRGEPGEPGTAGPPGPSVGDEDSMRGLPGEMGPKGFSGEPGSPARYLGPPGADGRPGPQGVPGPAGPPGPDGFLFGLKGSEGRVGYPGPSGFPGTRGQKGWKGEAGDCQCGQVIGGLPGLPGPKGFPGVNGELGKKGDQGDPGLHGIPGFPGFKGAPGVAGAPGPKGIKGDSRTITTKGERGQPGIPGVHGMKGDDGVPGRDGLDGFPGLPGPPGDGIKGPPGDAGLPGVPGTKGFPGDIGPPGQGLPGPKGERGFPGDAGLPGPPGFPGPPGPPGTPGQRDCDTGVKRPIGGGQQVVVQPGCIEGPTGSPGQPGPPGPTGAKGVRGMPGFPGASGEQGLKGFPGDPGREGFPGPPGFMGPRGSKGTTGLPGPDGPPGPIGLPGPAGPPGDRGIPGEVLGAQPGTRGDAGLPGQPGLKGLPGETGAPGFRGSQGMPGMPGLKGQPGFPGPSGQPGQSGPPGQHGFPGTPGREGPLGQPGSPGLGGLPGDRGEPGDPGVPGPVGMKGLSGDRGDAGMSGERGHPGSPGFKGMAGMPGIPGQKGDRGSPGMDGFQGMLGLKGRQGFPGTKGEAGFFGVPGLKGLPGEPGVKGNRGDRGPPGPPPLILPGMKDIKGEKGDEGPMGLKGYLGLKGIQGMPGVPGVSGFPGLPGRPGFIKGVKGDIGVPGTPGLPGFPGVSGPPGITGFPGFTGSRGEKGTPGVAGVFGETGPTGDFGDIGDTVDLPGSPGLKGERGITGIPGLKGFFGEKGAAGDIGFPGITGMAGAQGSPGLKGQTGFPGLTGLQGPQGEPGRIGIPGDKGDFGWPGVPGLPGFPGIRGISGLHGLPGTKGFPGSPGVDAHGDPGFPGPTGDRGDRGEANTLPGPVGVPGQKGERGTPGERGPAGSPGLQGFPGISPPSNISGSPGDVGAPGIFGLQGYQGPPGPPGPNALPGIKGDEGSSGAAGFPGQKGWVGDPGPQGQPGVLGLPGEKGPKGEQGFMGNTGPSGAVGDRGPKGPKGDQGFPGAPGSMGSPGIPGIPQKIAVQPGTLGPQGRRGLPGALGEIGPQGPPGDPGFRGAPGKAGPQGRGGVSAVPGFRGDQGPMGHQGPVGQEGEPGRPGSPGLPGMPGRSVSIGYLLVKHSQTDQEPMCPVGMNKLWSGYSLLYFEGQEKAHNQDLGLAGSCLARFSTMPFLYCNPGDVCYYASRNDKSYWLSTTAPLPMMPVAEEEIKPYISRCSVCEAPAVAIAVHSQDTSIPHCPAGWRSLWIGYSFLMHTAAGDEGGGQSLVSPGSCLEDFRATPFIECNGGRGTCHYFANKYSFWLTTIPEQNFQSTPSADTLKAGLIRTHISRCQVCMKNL
In the case of “Moraxella catarrhalis strain O12E Hag protein (natural protein)”, the fold adherence to collagen over the negative control (E. coli with pCC1.3) is reported as 35 fold. Substance “Moraxella catarrhalis strain O35E Hag protein (wild type) (natural protein)” has a fold adherence to collagen over the negative control (E. coli with pCC1.3) of 80 fold. “Moraxella catarrhalis strain V1171 Hag protein (natural protein)” gave a fold adherence to collagen over the negative control (E. coli with pCC1.3) of 35 fold.
